B1: proMMP-1 (platelet-associated zymogen of MMP-1) (enzyme, human, UniProt P03956 20-469, looked up)
chain: FPATLETQEQDVDLVQKYLEKYYNLKNDGRQVEKRRNSGPVVEKLKQMQEFFGLKVTGKPDAETLKVMKQPRCGVPDVAQFVLTEGNPRWEQTHLTYRIENYTPDLPRADVDHAIEKAFQLWSNVTPLTFTKVSEGQADIMISFVRGDHRDNSPFDGPGGNLAHAFQPGPGIGGDAHFDEDERWTNNFREYNLHRVAAHELGHSLGLSHSTDIGALMYPSYTFSGDVQLAQDDIDGIQAIYGRSQNPVQPIGPQTPKACDSKLTFDAITTIRGEVMFFKDRFYMRTNPFYPEVELNFISVFWPQLPNGLEAAYEFADRDEVRFFKGNKYWAVQGQNVLHGYPKDIYSSFGFPRTVKHIDAALSEENTGKTYFFVANKYWRYDEYKRSMDPGYPKMIAHDFPGIGHKVDAVFMKDGFFYFFHGTRQYKFDPKTKRILTLQKANSWFNCRKN
notes: Endogenous protein co-immunoprecipitated from platelet lysates; detected by Western with AB8105 or AB806; also called MMP-1 (predominantly in the pro form)
B2: GPVI of human platelets (receptor, UniProt Q9HCN6 21-339, looked up)
chain: QSGPLPKPSLQALPSSLVPLEKPVTLRCQGPPGVDLYRLEKLSSSRYQDQAVLFIPAMKRSLAGRYRCSYQNGSLWSLPSDQLELVATGVFAKPSLSAQPGPAVSSGGDVTLQCQTRYGFDQFALYKEGDPAPYKNPERWYRASFPIITVTAAHSGTYRCYSFSSRDPYLWSAPSDPLELVVTGTSVTPSRLPTEPPSPVAEFSEATAELTVSFTNEVFTTETSRSITASPKESDSPAGPARQYYTKGNLVRICLGAVILIILAGFLAEDWHSRRKRLRHRGRAVQRPLPPLPPLPLTRKSNGGQDGGRQDVHSRGLCS
notes: also called GPVI collagen receptor

Experiment [1] addresses PAR1 (protease-activated receptor-1) on human platelets (human) (UniProt P25116). The experiment can be described thus: cell-based or functional assay.
Experiment [2] addresses PAR4 thrombin receptor on human platelets (human) (UniProt Q96RI0). The experiment is described as follows: cell-based or functional assay.
The target in another experiment is GPIbα of human platelets (human, UniProt P07359 17-652). The experiment is described as follows: co-immunoprecipitation from resting human platelet lysates (anti-GPIBα MM2/174), Western for MMP-1. Here is the method:
(§1) One candidate binding site(s) for the platelet-associated proMMP-1 is the α₂β₁ collagen receptor. To determine if proMMP-1 associates with integrins in resting human platelets, lysates from gel-filtered platelets were incubated with 4-5 μg/ml anti-α₂ (Gi9 or AK7), β₁ (MAB1987), β₃ (MAB1957), GPVI (SC20149), GPIBα (MM2/174) or mouse IgG control for 2-4 h at 4° C. Protein G sepharose was added and incubated for an additional 1 h. Beads were collected and washed 4× in lysis buffer supplemented with 200 mM NaCl.

In experiment [3] the target is B1. The experiment can be described thus: co-immunoprecipitation from resting human platelet lysates (anti-GPVI SC20149), Western for MMP-1. Here is the method: as §1

Sequence of PAR4 thrombin receptor on human platelets (human) (Q96RI0 48-385): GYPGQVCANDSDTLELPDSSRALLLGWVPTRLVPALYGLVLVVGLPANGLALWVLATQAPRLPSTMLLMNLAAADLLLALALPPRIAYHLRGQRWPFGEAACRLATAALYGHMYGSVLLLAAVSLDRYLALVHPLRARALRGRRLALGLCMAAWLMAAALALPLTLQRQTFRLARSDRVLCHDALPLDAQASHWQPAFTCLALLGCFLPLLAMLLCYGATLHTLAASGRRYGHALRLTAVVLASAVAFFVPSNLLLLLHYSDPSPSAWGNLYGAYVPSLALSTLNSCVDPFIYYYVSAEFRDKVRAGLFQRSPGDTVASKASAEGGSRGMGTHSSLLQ
Sequence of PAR1 (protease-activated receptor-1) on human platelets (human) (P25116 42-425): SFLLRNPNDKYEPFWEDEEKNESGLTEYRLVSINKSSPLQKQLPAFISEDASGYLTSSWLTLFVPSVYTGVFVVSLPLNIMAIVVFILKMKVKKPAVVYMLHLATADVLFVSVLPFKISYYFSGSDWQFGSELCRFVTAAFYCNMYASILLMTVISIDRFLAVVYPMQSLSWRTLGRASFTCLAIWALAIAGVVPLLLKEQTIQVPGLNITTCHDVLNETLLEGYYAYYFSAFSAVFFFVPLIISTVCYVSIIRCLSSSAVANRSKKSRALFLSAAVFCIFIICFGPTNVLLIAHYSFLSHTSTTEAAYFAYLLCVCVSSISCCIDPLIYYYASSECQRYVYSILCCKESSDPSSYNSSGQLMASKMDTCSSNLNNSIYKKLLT

The molecule P1pal-12 (PAR1 pepducin lipopeptide) had a decrease in growth rate and size of platelet aggregate strings on collagen under arterial flow, 3 µM in experiment [1] of 75%.

In experiment [2], P4pal-10 (PAR4 pepducin lipopeptide) registered a collagen-induced platelet aggregation, 3 µM pepducin of 10%.

For B1, the binding result with GPIbα of human platelets is on record as “no binding”.

As to B2, in experiment [3], the binding result is listed as “no binding”.
